Consider ten molecules from US20170096493A1 (EISAI R AND D MANAGEMENT, published 2017).

Test [1] has as its target T1, Human Notch4-NRR domain Fc fusion protein (human, UniProt Q99466 1046-1445, limits assumed).
T1 construct: Expressed in a CHO cell line, used from culture supernatant; 1 is named; also called Human Notch4-NRR Fusion Protein; not shown: Fc
T1 sequence: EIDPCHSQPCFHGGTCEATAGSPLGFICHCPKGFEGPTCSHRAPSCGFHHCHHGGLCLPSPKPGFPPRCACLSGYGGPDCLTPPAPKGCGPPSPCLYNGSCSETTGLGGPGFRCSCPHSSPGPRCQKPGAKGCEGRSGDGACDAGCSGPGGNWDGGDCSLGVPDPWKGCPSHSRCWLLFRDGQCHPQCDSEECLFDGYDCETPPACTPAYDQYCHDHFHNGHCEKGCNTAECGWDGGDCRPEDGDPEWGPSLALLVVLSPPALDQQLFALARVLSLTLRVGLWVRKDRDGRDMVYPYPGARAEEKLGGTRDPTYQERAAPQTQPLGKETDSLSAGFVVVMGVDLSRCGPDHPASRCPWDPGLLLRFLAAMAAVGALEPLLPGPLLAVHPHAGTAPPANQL
The test can be described thus: SPR (Biacore) as for Table 30; Notch4-NRR-Fc captured, antibody injected; averaged, N=1. As to the method:
(§1) Kinetic analysis of further anti-Notch4 inhibitory humanized antibodies was carried out as follows. Human Notch4-NRR domain Fc fusion proteins were expressed with a CHO cell line. The antigen in the culture supernatant was captured by the anti-human Notch4 antibody fixed on a CM5 sensor chip that recognizes different epitopes of human Notch4. The humanized anti-human Notch4 antibody was then injected onto the sensor chip at various concentrations. The interaction and disassociation constants thereof were calculated according to manufacturer's instructions.
Background: SPR reads the build-up and loss of mass on a sensor chip optically.

For test [2], the target named is T1, Human Notch4-NRR domain Fc fusion …. The test can be described thus: SPR (Biacore) as for Table 30; Notch4-NRR-Fc captured, antibody injected; averaged, N=3. On the procedure:
as §1

The target of test [3] is Notch4 with a part of the intracellular domain substituted with GAL4 DNA binding domain, on b.end3 reporter …. The test can be described thus: cell-based or functional assay.
Test [4] deals with T1, Human Notch4-NRR domain Fc fusion …. The test can be described thus: SPR (Biacore); Notch4-NRR-Fc captured by another anti-Notch4 antibody on CM5, antibody injected. On the procedure:
as §1

Test [5] has the same target. The test can be described thus: SPR (Biacore) as for Table 30; Notch4-NRR-Fc captured, antibody injected; averaged, N=5. As to the method: as §1
Test [6] shares this target. The test can be described thus: SPR (Biacore) as for Table 30; Notch4-NRR-Fc captured, antibody injected; averaged, N=2. As to the method:
as §1

B1: HA1L3 (antibody, human IgG2, kappa, V domains shown)
VH: EVQLVESGGGLVQPGGSLRLSCAASGFTFSSYGMSWVRQAPGKGLEYVSTINSNGGRTYYANSVKGRFTISRDNSKNTLYLQMGSLRAEDMAVYYCARDQGFAYWGQGTLVTVSS
VL: EIVMTQSPATLSVSPGERATLSCKASQDVGTAVAWYQQKPGQAPRLLIYWASTRHTGIPARFSGSGSGTEFTLTISSLQSEDFAVYYCQQYSSYPWTFGQGTKVEIKR
notes: Humanized IgG2 (V234A, G237A)/κ; also called No. 23
In the case of B1, in test [1], the affinity, expressed as Kd, was 14.7 nM; the koff came to 0.524 s⁻¹; the kon was 3.57e+07 M⁻¹ s⁻¹.

B2: HK1L5 (antibody, human IgG2, kappa, V domains shown)
VH: EVQLVESGGGLVQPGGSLRLSCAASGFTFSSYGMSWVRQAPGKGLEYVSTINSNGGRTYYPDSVKGRFTISRDNSKNTLYLQMGSLRAEDMAVYYCARDQGFAYWGQGTLVTVSS
VL: DIQMTQSPSSLSASVGDRVTITCKASQDVGTAVAWYQQKPGKSPKLLIYWASTRHTGVPSRFSGSGSGTDFTLTISSLQPEDVATYFCQQYSSYPWTFGQGTKVEIKR
notes: Humanized IgG2 (V234A, G237A)/κ; also called No. 10
In test [2], B2 registered a Kd of 1.78 nM, a koff of 0.00489 s⁻¹ and a kon of 2.72e+06 M⁻¹ s⁻¹.

B3: HA1L4 (antibody, human IgG2, kappa, V domains shown)
VH: EVQLVESGGGLVQPGGSLRLSCAASGFTFSSYGMSWVRQAPGKGLEYVSTINSNGGRTYYANSVKGRFTISRDNSKNTLYLQMGSLRAEDMAVYYCARDQGFAYWGQGTLVTVSS
VL: EIVMTQSPATLSVSPGERATLSCKASQDVGTAVAWYQQKPGQAPRLLIYWASTRHTGIPARFSGSGSGTEFTLTISSLQSEDFAVYFCQQYSSYPWTFGQGTKVEIKR
notes: Humanized IgG2 (V234A, G237A)/κ; also called No. 24
In test [1], B3 displayed a Kd of 9.54 nM, a koff of 0.113 s⁻¹ and an on-rate constant (kon) of 1.18e+07 M⁻¹ s⁻¹.

B4: HA1L1 (antibody, human IgG2, kappa, V domains shown)
VH: EVQLVESGGGLVQPGGSLRLSCAASGFTFSSYGMSWVRQAPGKGLEYVSTINSNGGRTYYANSVKGRFTISRDNSKNTLYLQMGSLRAEDMAVYYCARDQGFAYWGQGTLVTVSS
VL: DIQMTQSPSSLSASVGDRVTITCKASQDVGTAVAWYQQKPGKVPKLLIYWASTRHTGVPSRFSGSGSGTDFTLTISSLQPEDVATYYCQQYSSYPWTFGQGTKVEIKR
notes: Humanized IgG2 (V234A, G237A)/κ; also called No. 21
Regarding B4, in test [1], the affinity, expressed as Kd, was 453 nM; the off-rate constant (koff) came out at 0.0279 s⁻¹; the kon is 61500 M⁻¹ s⁻¹.

B5: Antibody C (antibody, human IgG2, kappa)
heavy: EVQLVESGGGLVQPGGSLRLSCAASGFTFSSYGMSWVRQAPGKGLELVSTINSNGGRTYYPDSVKGRFTISRDNSKNTLYLQMGSLRAEDMAVYYCARDQGFAYWGQGTLVTVSSASTKGPSVFPLAPCSRSTSESTAALGCLVKDYFPEPVTVSWNSGALTSGVHTFPAVLQSSGLYSLSSVVTVPSSNFGTQTYTCNVDHKPSNTKVDKTVERKCCVECPPCPAPPAAAPSVFLFPPKPKDTLMISRTPEVTCVVVDVSHEDPEVQFNWYVDGVEVHNAKTKPREEQFNSTFRVVSVLTVVHQDWLNGKEYKCKVSNKGLPAPIEKTISKTKGQPREPQVYTLPPSREEMTKNQVSLTCLVKGFYPSDIAVEWESNGQPENNYKTTPPMLDSDGSFFLYSKLTVDKSRWQQGNVFSCSVMHEALHNHYTQKSLSLSPG
light: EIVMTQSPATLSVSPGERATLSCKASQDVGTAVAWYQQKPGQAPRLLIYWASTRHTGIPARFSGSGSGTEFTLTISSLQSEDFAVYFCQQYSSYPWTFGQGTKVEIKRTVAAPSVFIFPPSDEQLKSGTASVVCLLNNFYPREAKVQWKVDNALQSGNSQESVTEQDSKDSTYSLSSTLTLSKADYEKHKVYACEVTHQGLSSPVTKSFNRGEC
notes: Humanized IgG2 (V234A, G237A)/κ; also called HK2L4 (Lys-); HK2L4(Lys-)
For the molecule B5, the “% of Control (relative luminescence), Notch4-GAL4 luciferase reporter assay, antibody at 10 µg/ml” value (from here on “% of Control (relative luminescence)”) in test [3] is -9.9 % of Control. In test [4], this molecule showed a Kd of 0.556 nM, a koff of 0.00106 s⁻¹ and a kon of 1.91e+06 M⁻¹ s⁻¹. In test [5], this molecule returned a Kd of 0.715 nM, a koff of 0.00127 s⁻¹ and a kon of 1.81e+06 M⁻¹ s⁻¹.

B6: HK2L5(Lys-) (antibody, human IgG2, kappa)
heavy: EVQLVESGGGLVQPGGSLRLSCAASGFTFSSYGMSWVRQAPGKGLELVSTINSNGGRTYYPDSVKGRFTISRDNSKNTLYLQMGSLRAEDMAVYYCARDQGFAYWGQGTLVTVSSASTKGPSVFPLAPCSRSTSESTAALGCLVKDYFPEPVTVSWNSGALTSGVHTFPAVLQSSGLYSLSSVVTVPSSNFGTQTYTCNVDHKPSNTKVDKTVERKCCVECPPCPAPPAAAPSVFLFPPKPKDTLMISRTPEVTCVVVDVSHEDPEVQFNWYVDGVEVHNAKTKPREEQFNSTFRVVSVLTVVHQDWLNGKEYKCKVSNKGLPAPIEKTISKTKGQPREPQVYTLPPSREEMTKNQVSLTCLVKGFYPSDIAVEWESNGQPENNYKTTPPMLDSDGSFFLYSKLTVDKSRWQQGNVFSCSVMHEALHNHYTQKSLSLSPG
light: DIQMTQSPSSLSASVGDRVTITCKASQDVGTAVAWYQQKPGKSPKLLIYWASTRHTGVPSRFSGSGSGTDFTLTISSLQPEDVATYFCQQYSSYPWTFGQGTKVEIKRTVAAPSVFIFPPSDEQLKSGTASVVCLLNNFYPREAKVQWKVDNALQSGNSQESVTEQDSKDSTYSLSSTLTLSKADYEKHKVYACEVTHQGLSSPVTKSFNRGEC
notes: Humanized IgG2 (V234A, G237A)/κ; also called No. 36
Turning to B6, in test [5], the Kd was determined as 0.617 nM, the koff stood at 0.00113 s⁻¹ and the kon was 1.93e+06 M⁻¹ s⁻¹.

B7: Antibody F (antibody, human IgG2, kappa)
heavy: EVQLVESGGGLVQPGGSLRLSCAASGFTFSSYGMSWVRQAPGKGLELVSTINSNGGRTYYANSVKGRFTISRDNSKNTLYLQMGSLRAEDMAVYYCARDQGFAYWGQGTLVTVSSASTKGPSVFPLAPCSRSTSESTAALGCLVKDYFPEPVTVSWNSGALTSGVHTFPAVLQSSGLYSLSSVVTVPSSNFGTQTYTCNVDHKPSNTKVDKTVERKCCVECPPCPAPPAAAPSVFLFPPKPKDTLMISRTPEVTCVVVDVSHEDPEVQFNWYVDGVEVHNAKTKPREEQFNSTFRVVSVLTVVHQDWLNGKEYKCKVSNKGLPAPIEKTISKTKGQPREPQVYTLPPSREEMTKNQVSLTCLVKGFYPSDIAVEWESNGQPENNYKTTPPMLDSDGSFFLYSKLTVDKSRWQQGNVFSCSVMHEALHNHYTQKSLSLSPG
light: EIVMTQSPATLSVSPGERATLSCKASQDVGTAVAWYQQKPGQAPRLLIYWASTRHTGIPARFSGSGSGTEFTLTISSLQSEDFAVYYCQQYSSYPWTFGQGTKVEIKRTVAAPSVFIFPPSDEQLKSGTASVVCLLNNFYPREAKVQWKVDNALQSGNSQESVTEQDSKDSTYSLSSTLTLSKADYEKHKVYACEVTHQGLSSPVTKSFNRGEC
notes: Humanized IgG2 (V234A, G237A)/κ; also called HA2L3 (Lys-); HA2L3(Lys-)
As for B7, the “% of Control (relative luminescence)” value in test [3] is 17 % of Control. In test [4], binding was put at a Kd of 0.982 nM, the koff amounted to 0.00136 s⁻¹ and the kon was 1.55e+06 M⁻¹ s⁻¹. In addition, in test [6], the Kd was 0.434 nM, the koff is 0.000894 s⁻¹ and the kon came out at 3.5e+06 M⁻¹ s⁻¹.

B8: Antibody E (antibody, human IgG2, kappa, V domains shown)
VH: EVQLVESGGGLVQPGGSLRLSCAASGFTFSSYGMSWVRQAPGKGLELVSTINSNGGRTYYPDSVKGRFTISRDNSKNTLYLQMGSLRAEDMAVYYCARDQGFAYWGQGTLVTVSS
VL: EIVMTQSPATLSVSPGERATLSCKASQDVGTAVAWYQQKPGQSPRLLIYWASTRHTGIPARFSGSGSGTEFTLTISSLQSEDFAVYFCQQYSSYPWTFGQGTKVEIKR
notes: Humanized IgG2 (V234A, G237A)/κ; also called HK2L6 (Lys-); HK2L6(Lys-)
Take B8: the “% of Control (relative luminescence)” value in test [3] is 5 % of Control. In test [2], the affinity, expressed as Kd, was 0.62 nM; the koff came out at 0.00115 s⁻¹; the kon turned out to be 1.87e+06 M⁻¹ s⁻¹. Besides, in test [4], the Kd amounted to 0.519 nM, the koff was found to be 0.00115 s⁻¹ and the kon came to 2.23e+06 M⁻¹ s⁻¹.

B9: Antibody A (antibody, human IgG2, kappa)
heavy: EVQLVESGGGLVQPGGSLRLSCAASGFTFSSYGMSWVRQAPGKGLELVSTINSNGGRTYYPDSVKGRFTISRDNSKNTLYLQMGSLRAEDMAVYYCARDQGFAYWGQGTLVTVSSASTKGPSVFPLAPCSRSTSESTAALGCLVKDYFPEPVTVSWNSGALTSGVHTFPAVLQSSGLYSLSSVVTVPSSNFGTQTYTCNVDHKPSNTKVDKTVERKCCVECPPCPAPPAAAPSVFLFPPKPKDTLMISRTPEVTCVVVDVSHEDPEVQFNWYVDGVEVHNAKTKPREEQFNSTFRVVSVLTVVHQDWLNGKEYKCKVSNKGLPAPIEKTISKTKGQPREPQVYTLPPSREEMTKNQVSLTCLVKGFYPSDIAVEWESNGQPENNYKTTPPMLDSDGSFFLYSKLTVDKSRWQQGNVFSCSVMHEALHNHYTQKSLSLSPG
light: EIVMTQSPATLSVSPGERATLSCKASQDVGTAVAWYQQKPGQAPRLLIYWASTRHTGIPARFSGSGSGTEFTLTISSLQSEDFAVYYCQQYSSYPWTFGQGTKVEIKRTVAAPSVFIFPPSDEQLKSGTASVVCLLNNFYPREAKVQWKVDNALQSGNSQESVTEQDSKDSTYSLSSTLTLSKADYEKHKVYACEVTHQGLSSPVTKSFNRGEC
notes: Humanized IgG2 (V234A, G237A)/κ; also called HK2L3 (Lys-); HK2L3(Lys-)
Take B9: in test [3], the “% of Control (relative luminescence)” value is 0.1 % of Control. Besides, in test [4], the Kd came out at 0.555 nM, the koff was 0.000889 s⁻¹ and the kon stood at 1.62e+06 M⁻¹ s⁻¹. Moreover, in test [6], the Kd was found to be 0.395 nM, the koff came out at 0.00124 s⁻¹ and the kon stood at 5.05e+06 M⁻¹ s⁻¹.

B10: HA2L4(Lys-) (antibody, human IgG2, kappa)
heavy: EVQLVESGGGLVQPGGSLRLSCAASGFTFSSYGMSWVRQAPGKGLELVSTINSNGGRTYYANSVKGRFTISRDNSKNTLYLQMGSLRAEDMAVYYCARDQGFAYWGQGTLVTVSSASTKGPSVFPLAPCSRSTSESTAALGCLVKDYFPEPVTVSWNSGALTSGVHTFPAVLQSSGLYSLSSVVTVPSSNFGTQTYTCNVDHKPSNTKVDKTVERKCCVECPPCPAPPAAAPSVFLFPPKPKDTLMISRTPEVTCVVVDVSHEDPEVQFNWYVDGVEVHNAKTKPREEQFNSTFRVVSVLTVVHQDWLNGKEYKCKVSNKGLPAPIEKTISKTKGQPREPQVYTLPPSREEMTKNQVSLTCLVKGFYPSDIAVEWESNGQPENNYKTTPPMLDSDGSFFLYSKLTVDKSRWQQGNVFSCSVMHEALHNHYTQKSLSLSPG
light: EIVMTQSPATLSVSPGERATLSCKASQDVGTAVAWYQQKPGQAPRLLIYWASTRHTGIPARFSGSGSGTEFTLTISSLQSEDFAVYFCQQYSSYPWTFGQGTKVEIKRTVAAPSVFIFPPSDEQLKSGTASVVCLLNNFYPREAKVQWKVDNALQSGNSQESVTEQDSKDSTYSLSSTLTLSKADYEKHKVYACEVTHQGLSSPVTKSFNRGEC
notes: Humanized IgG2 (V234A, G237A)/κ; also called No. 32
In test [5], B10 displayed a Kd of 0.83 nM, an off-rate constant (koff) of 0.00162 s⁻¹ and an association rate constant (kon) of 2.43e+06 M⁻¹ s⁻¹.

Broadly, the Kd is a measure of binding affinity in units of concentration. A lower Kd goes with tighter binding. By koff is commonly meant a measure of how fast the partners let go of each other. A low value points to a long-lived complex. Broadly, the kon is the second-order rate constant of association.
